The values that follow come from PMC2932714 (PLoS ONE, 2010).

The data set deals with the molecule itself. Kind of data set: thioflavin T fluorescence + atomi.

B1: Ure2 (yeast prion protein Ure2, Saccharomyces cerevisiae) (natural protein, UniProt P23202 1-354, looked up)
chain: MMNNNGNQVSNLSNALRQVNIGNRNSNTTTDQSNINFEFSTGVNNNNNNNSSSNNNNVQNNNSGRNGSQNNDNENNIKNTLEQHRQQQQAFSDMSHVEYSRITKFFQEQPLEGYTLFSHRSAPNGFKVAIVLSELGFHYNTIFLDFNLGEHRAPEFVSVNPNARVPALIDHGMDNLSIWESGAILLHLVNKYYKETGNPLLWSDDLADQSQINAWLFFQTSGHAPMIGQALHFRYFHSQKIASAVERYTDEVRRVYGVVEMALAERREALVMELDTENAAAYSAGTTPMSQSRFFDYPVWLVGDKLTIADLAFVPWNNVVDRIGINIKIEFPEVYKWTKHMMRRPAVIKALRGE
notes: Ure2, Saccharomyces cerevisiae; the introduction describes it as a 354-amino acid homodimeric protein; It starts as the native dimer and assembles into protofibrils and mature fibrils on incubation at 4°C; also called WT Ure2; native Ure2; source: Escherichia coli, purified under native conditions
As for B1, the binding result was “binds”.
